Source: patent US20220089709A1 (HEFEI LIFEON PHARMACEUTICAL, published 2022)

Experiments:
[1] = molecular target: ED-B domain of human fibronectin, recombinant, with C-terminal six-histidine tag (human) (UniProt P02751); assay: ELISA on coated ED-B, Scatchard assay (Beatty et al.)
[2] = molecular target: T1, ED-B domain of human fibronectin, recombinant, with C-terminal six-histidine tag (human, UniProt P02751 1266-1356); assay: direct ELISA on coated ED-B, Scatchard analysis (Beatty et al.)
T1 construct: Expressed in E. coli from pET-22b(+) (EcoRI/NotI); residues from the vector between ED-B and the tag are not described; also called EDB antigen; antigen ED-B
T1 sequence (P02751 other isoform, or with tags, fused parts or gaps limits assumed): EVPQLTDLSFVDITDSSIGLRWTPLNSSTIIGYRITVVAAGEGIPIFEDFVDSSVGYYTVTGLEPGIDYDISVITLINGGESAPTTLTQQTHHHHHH

Chain of ED-B domain of human fibronectin, recombinant, with C-terminal six-histidine tag (human) (P02751 other isoform, or with tags, fused parts or gaps limits assumed): as above

Molecule: L19-Fc (Fc fusion)
- Kd [1]: 6 nM

B1: A11 antibody (Fc fusion)
chain: EVQLLESGGGLVQPGGSLRLSCAASGFTFSSYAMSWVRQAPGKGLEWVSRISPSGSSTYYADSVKGRFTISRDNSKNTLYLQMNSLRAEDTAVYYCARRMSYFDYWGQGTLVTVSSGGGGSGGGGSGGGGSSQSALTQPASVSGSPGQSITISCSGDSLGIGSNNYVSWYQQHPGKAPKLMIYDDNKRPSGVSNRFSGSKSGNTASLTISGLQAEDEADYYCQSWDGRQPVFGGGTKLTVLG
notes: Assayed as purified Fc-containing antibody from mammalian cells
- affinity relative to L19 [2]: ~3 fold
